The values below come from patent US20170145113A1 (Genentech, published 2017).

One may read the Kd as a measure of binding affinity in units of concentration. In general, koff refers to the first-order rate constant of dissociation. Usually kon stands for the rate constant with which the complex forms.

The target of experiment [1] is T1, His-tagged human HtrA1 protease domain (human, UniProt Q92743 161-367).
T1 construct: His-tagged protease domain; also called huHtrA1-PD-His; huHtrA1-PD
The experiment in a line: BIACORE SPR, single-cycle kinetics; Fab analyte over captured human HtrA1. For orientation: In SPR one partner is held on a chip, and binding of the other changes the refractive index at the surface.

The target in experiment [2] is T1, His-tagged human HtrA1 protease domain. Put plainly: BIACORE T200 SPR; Fab analyte over huHtrA1-PD-His captured by anti-His antibody. On the procedure:
(§1) To determine the binding affinity of selected Fab variants for HtrA1, SPR measurement with a BIACORE™ T200 instrument was performed. Briefly, a series S sensor chip CM5 was activated with 1-EDC and NHS reagents according to the supplier's instructions, and anti-His antibody was coupled to achieve 200-300 response units (RU), then following by blocking un-reacted groups with 1 M ethanolamine. For kinetics measurements, approximately 5 nM of huHtrA1-PD-His was first injected at 10 μl/min flow rate to capture approximately 100 RU at 2 different flow cells (FC), except for FC1 (which served as a reference). Next, 5-fold serial dilutions of Fab in HBS-P buffer (0.01M HEPES pH 7.4, 0.15M NaCl, 0.005% surfactant P20) from low (0.8 nM) to high (50 nM) were injected (flow rate: 30 μl/min). The binding responses on HtrA1 were corrected by subtracting of RU from a blank flow cell. The sensorgram was recorded and subject to reference and buffer subtraction before evaluating by BIACORE® T200 Evaluation Software (version 2.0). Association rates (kₒₙ) and dissociation rates (koff) were calculated using a simple one-to-one Langmuir binding model. The equilibrium dissociation constant (KD) was calculated as the ratio of koff/kₒₙ.

For experiment [3] the target is unchanged. Put plainly: SPR (BIACORE T200), huHtrA1-PD-His captured by anti-His, Fab injected. As for the experimental part: These combination mutants included both a variant light chain and a variant heavy chain. BIACORE™ kinetic analysis was performed (as described below in Section C) using the combination mutants.
as §1

The target is the same in experiment [4]. The experiment in a line: BIACORE SPR, Fab analyte, Human HtrA1-PD (N=2).
The target is the same in experiment [5]. The experiment in a line: BIACORE SPR, single-cycle kinetics; Fab analyte over captured human HtrA1. This is another data set of the same source.
Experiment [6] has the same target. Put plainly: SPR (BIACORE), Fab. The text has this:
(§2) To address W91 oxidation in HVR-L3, 2 variants (LC-W91Y and LC-W91L) were generated and produced as Fabs for BIACORE™ SPR binding analysis.
(§3) To determine the binding affinity of anti-HtrA1 Fabs by single-cycle kinetics, (SPR) measurement with a BIACORE™ T100 instrument was used. Briefly, a series S sensor chip CM5 was activated with 1-ethyl-3-(3-dimethylamino-propyl)carbodiimide hydrochloride (EDC) and N-hydroxysuccinimide (NHS) reagents according to the supplier's instructions, and streptavidin (Pierce) was coupled to achieve approximately 2500 response units (RU), followed by blocking un-reacted groups with 1 M ethanolamine.
(§4) For kinetics measurements, biotinylated human or murine HtrA1-PD-His was first injected at 10 μl/min flow rate to capture approximately 150 RU at 3 different flow cells (FC), except for FC1 (which served as a reference), and then 5-fold serial dilutions of anti-HtrA1 Fab in HBS-P buffer (0.01M HEPES pH 7.4, 0.15 M NaCl, 0.005% surfactant P20) from low (0.48 nM) to high (300 nM) were injected (flow rate: 30 μl/min) one after the other in the same cycle with no regeneration between injections. The sensorgram was recorded and subject to reference and buffer subtraction before evaluating by BIACORE™ T100 Evaluation Software (version 2.0). Association rates (kₒₙ) and dissociation rates (koff) were calculated using a simple one-to-one Langmuir binding model. The equilibrium dissociation constant (KD) was calculated as the ratio koff/kₒₙ.

Experiment [7] has as its target T2, His-tagged recombinant murine HtrA1 protease domain (murine, UniProt Q9R118 156-367).
T2 construct: His-tagged protease domain; also called muHtrA1-PD-His; muHtrA1-PD
Put plainly: SPR (BIACORE), Fab.
Source text: as §2, §3, §4

In experiment [8] the target is T1, His-tagged human HtrA1 protease domain. Put plainly: SPR (BIACORE T100), single-cycle kinetics; biotinylated HtrA1-PD-His on streptavidin, Fab injected.
Source text: as §3, §4

The target of experiment [9] is T2, His-tagged recombinant murine HtrA1 …. The description is as above.
Source text: as §3, §4

Positions count from the first letter of the chain named. Names may count otherwise.

T1 sequence (Q92743 other isoform, or with tags, fused parts or gaps limits assumed): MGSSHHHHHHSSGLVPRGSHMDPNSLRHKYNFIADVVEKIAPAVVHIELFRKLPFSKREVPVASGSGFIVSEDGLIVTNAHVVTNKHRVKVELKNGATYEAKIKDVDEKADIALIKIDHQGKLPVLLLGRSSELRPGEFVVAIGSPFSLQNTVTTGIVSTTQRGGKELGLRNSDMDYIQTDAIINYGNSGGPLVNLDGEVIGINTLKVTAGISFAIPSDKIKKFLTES

B1: AG (Fab, V domains shown)
VH: EVQLVQSGAEVKKPGASVKVSCKASGYTFTDSEMHWVRQAPGQGLEWIGGVDPETAGAAYNQKFKGRATITRDTSTSTAYLELSSLRSEDTAVYYCTRGYDYDYALDYWGQGTLVTVSS
VL: DIQMTQSPSSLSASVGDRVTITCRASSSVNFIHWYQQKPGKAPKPLISATSNLASGVPSRFSGSGSGTDFTLTISSLQPEDFATYYCQQWSSNPWTFGQGTKVEIK
notes: single member of the group m42; also called h15H6.v2 HC-D55A HC-G56 Fab
For B1, in experiment [1], the dissociation constant Kd was determined as 0.76 nM, the off-rate (koff) was determined as 0.00035 s⁻¹ and the kon was found to be 460000 M⁻¹ s⁻¹.

B2: combination mutant LC3.HC1 Fab (Fab, V domains shown)
VH: B1 VH with T30K, A56D
VL: B1 VL with N30E
notes: Fab
In the case of B2, binding in experiment [2] was characterised by a dissociation constant (Kd) of 0.0898 nM. Moreover, in experiment [3], the dissociation constant (Kd) was 0.0889 nM, the koff amounted to 7.95e-05 s⁻¹ and the kon turned out to be 885000 M⁻¹ s⁻¹.

B3: SP_EG (Fab, V domains shown)
VH: B1 VH with A56E
VL: B1 VL with N93S
notes: also called h15H6.v2 LC-N94S LC-P95 HC-D55E HC-G56 Fab; copies: 1 + 1
Regarding B3, in experiment [4], the dissociation constant Kd turned out to be 0.8 nM, the koff was found to be 0.00029 s⁻¹ and the association rate constant (kon) amounted to 350000 M⁻¹ s⁻¹.

B4: h15H6.v2 LC-N94E LC-P95 Fab (Fab, V domains shown)
VH: B1 VH with A56D
VL: B1 VL with N93E
notes: Produced as Fab; also called EP
In experiment [5], B4 came in with a Kd of 0.33 nM, a koff of 0.00017 s⁻¹ and a kon of 520000 M⁻¹ s⁻¹.

B5: SG (Fab, V domains shown)
VH: B1 VH with A56S
VL: B1 VL
notes: single member of the group m42; also called h15H6.v2 HC-D55S HC-G56 Fab
In [1], B5 yielded a Kd of 0.78 nM, a koff of 0.00032 s⁻¹ and an on-rate constant (kon) of 410000 M⁻¹ s⁻¹.

B6: APEG.LC347.HC23 (Fab, V domains shown)
VH: B1 VH with T28K, T30R, A56E
VL: B1 VL with N30E, N52H, S91Y, N93A
notes: single member of the group m82
In experiment [2], B6 registered a dissociation constant Kd of 0.163 nM, a koff of 6.47e-05 s⁻¹ and a kon of 397000 M⁻¹ s⁻¹.

B7: DA (Fab, V domains shown)
VH: B1 VH with A56D, G57A
VL: B1 VL
notes: single member of the group m42; also called h15H6.v2 HC-D55 HC-G56A Fab
For B7, in [1], the dissociation constant (Kd) amounted to 0.84 nM, the off-rate (koff) worked out at 0.00027 s⁻¹ and the kon amounted to 320000 M⁻¹ s⁻¹.

B8: h15H6.v2 HC-D55E HC-G56 Fab (Fab, V domains shown)
VH: B1 VH with A56E
VL: B1 VL
notes: Produced as Fab; also called EG
B8: in [1], binding was characterised by a dissociation constant (Kd) of 0.55 nM, the dissociation rate constant (koff) came out at 0.00021 s⁻¹ and the kon is 380000 M⁻¹ s⁻¹.

B9: QP_EG (Fab, V domains shown)
VH: B1 VH with A56E
VL: B1 VL with N93Q
notes: also called h15H6.v2 LC-N94Q LC-P95 HC-D55E HC-G56 Fab; copies: 1 + 1
Take B9: in [4], binding was put at a Kd of 0.8 nM, the koff turned out to be 0.00029 s⁻¹ and the on-rate constant (kon) stood at 380000 M⁻¹ s⁻¹.

B10: h15H6.v2 LC-W91Y Fab (Fab, V domains shown)
VH: B1 VH with A56D
VL: B1 VL with W90Y
notes: Produced as Fab
On to B10, for which, in experiment [6], the affinity, expressed as Kd, was 11.2 nM; the koff is 0.0037 s⁻¹; the kon came out at 330000 M⁻¹ s⁻¹. Further, in [7], the equilibrium dissociation constant (Kd) was determined as 7.1 nM, the koff came to 0.0017 s⁻¹ and the association rate constant (kon) was found to be 240000 M⁻¹ s⁻¹.

B11: h15H6.v2 LC-N94A LC-P95 Fab (Fab, V domains shown)
VH: B1 VH with A56D
VL: B1 VL with N93A
notes: Produced as Fab; also called AP
In the case of B11, in experiment [5], the dissociation constant (Kd) was determined as 0.31 nM, the koff was 0.00014 s⁻¹ and the on-rate (kon) amounted to 450000 M⁻¹ s⁻¹.

B12: EP_EG (Fab, V domains shown)
VH: B1 VH with A56E
VL: B1 VL with N93E
notes: also called h15H6.v2 LC-N94E LC-P95 HC-D55E HC-G56 Fab; copies: 1 + 1
In experiment [4], B12 gave a Kd of 0.4 nM, a koff of 0.00018 s⁻¹ and a kon of 450000 M⁻¹ s⁻¹.

B13: APEG.LC347.HC13 (Fab, V domains shown)
VH: B1 VH with T28K, T30K, A56E
VL: B1 VL with N30E, N52H, S91Y, N93A
notes: as for B6
In experiment [2], B13 registered a Kd of 0.131 nM, an off-rate constant (koff) of 4.88e-05 s⁻¹ and a kon of 371000 M⁻¹ s⁻¹.

B14: h15H6.v2 LC-W91L Fab (Fab, V domains shown)
VH: B1 VH with A56D
VL: B1 VL with W90L
notes: Produced as Fab
Take B14: in experiment [6], the Kd was determined as 10.7 nM, the dissociation rate constant (koff) was determined as 0.0016 s⁻¹ and the kon stood at 150000 M⁻¹ s⁻¹. Besides, in experiment [7], the Kd was determined as 7.6 nM, the dissociation rate constant (koff) was 0.00091 s⁻¹ and the on-rate (kon) amounted to 120000 M⁻¹ s⁻¹.

B15: m19B12 Fab (Fab, V domains shown)
VH: EVKLVESGGGLVEPGGSLKLACVASGFTFSSYIMSWVRQTPEKRLEWVAYISNGGGTTYYSDTIKGRFTISRDNAKNTLYLQMSTLKSEDTAIYFCARQNFRSDGSSMDYWGQGTAVTVSS
VL: NIVVTQSPASLAVSLGQRATISCRASESVDSYGKSFMHWYQQKPGQPPKLLIYLASKLESGVPARFSGSGSRTDFTLTIDPVEADDAATYYCQQNNEDPYTFGGGTKLEIK
notes: Tested in Fab format
Consider B15, for which, in experiment [8], the affinity, expressed as Kd, was 23.8 nM; the koff was determined as 0.00228 s⁻¹; the kon turned out to be 96000 M⁻¹ s⁻¹. In addition, in experiment [9], the Kd is 6.43 nM, the koff worked out at 0.00117 s⁻¹ and the kon worked out at 182000 M⁻¹ s⁻¹.

B16: m15H6 Fab (Fab, V domains shown)
VH: QVQLQQSGAELVRPGASVTLSCKASGYTFTDSEMHWVKQTPVHGLEWIGGVDPETDGAAYNQKFKGKATLTADKSSSTAYMELRSLTSEDSAVYYCTRGYDYDYALDYWGQGTSVTVSS
VL: QIVLSQSPAILSASPGEKVTMTCRASSSVNFIHWYQQKPGSSPKPWISATSNLASGVPPRFSGSGSGTSYSLTISRVEAEDAATYYCQQWSSNPWTFGGGTKLEIK
notes: Tested as Fab; also called ml5H6 Fab; m15H6 in Fab format
In [8], B16 showed an equilibrium dissociation constant (Kd) of 0.31 nM, a koff of 0.000155 s⁻¹ and an association rate constant (kon) of 506000 M⁻¹ s⁻¹. Also, in experiment [9], the Kd amounted to 0.3 nM, the koff was found to be 0.000163 s⁻¹ and the kon is 539000 M⁻¹ s⁻¹.
